This note sets out measurements from paper PMC2670981, “Divergence of Catalytic Mechanism within a Glycosidase Family Provides Insight into Evolution of Carbohydrate Metabolism by Human Gut Flora” (Chemistry & Biology, 2008).

What all share (conditions): Ca2+
Substrate in data set [1]: O=[N+]([O-])c1ccc(O[C@H]2O[C@H](CO)[C@@H](O)[C@H](O)[C@H]2O)cc1
Briefly: Michaelis-Menten kinetics (KM) and 1H NMR of hydrolysis. The data set is classed as biochemical, Bacteroides thetaiotaomicron.

Substrate in data set [2]: OC[C@H]1O[C@H](O[C@H]2[C@H](O)[C@@H](O)C(O)O[C@@H]2CO)[C@H](O)[C@@H](O)[C@@H]1O
The data set can be described thus: stopped glucose oxidase/peroxidase assay, Michaelis-Menten (KM) with substrate inhibition. The data set is classed as biochemical, Bacteroides thetaiotaomicron.

Substrate in data set [3]: OC[C@H]1O[C@H](OC[C@H]2OC(O)[C@H](O)[C@@H](O)[C@@H]2O)[C@H](O)[C@@H](O)[C@H]1O
The data set can be described thus: purified protein.

Substrate in data set [4]: O=[N+]([O-])c1ccc(O[C@H]2O[C@H](CO)[C@H](O)[C@H](O)[C@H]2O)cc1
Briefly: Michaelis-Menten kinetics (KM) and 1H NMR of hydrolysis. The data set is classed as biochemical, Bacteroides thetaiotaomicron.

B1: BtGH97a (Bacteroides thetaiotaomicron VPI-5482) (protein)
chain: QQKLTSPDNNLVMTFQVDSKGAPTYELTYKNKVVIKPSTLGLELKKEDNTRTDFDWVDRRDLTKLDSKTNLYDGFEVKDTQTATFDETWQPVWGEEKEIRNHYNELAVTLYQPMNDRSIVIRFRLFNDGLGFRYEFPQQKSLNYFVIKEEHSQFGMNGDHIAFWIPGDYDTQEYDYTISRLSEIRGLMKEAITPNSSQTPFSQTGVQTALMMKTDDGLYINLHEAALVDYSCMHLNLDDKNMVFESWLTPDAKGDKGYMQTPCNTPWRTIIVSDDARNILASRITLNLNEPCKIADAASWVKPVKYIGVWWDMITGKGSWAYTDELTSVKLGETDYSKTKPNGKHSANTANVKRYIDFAAAHGFDAVLVEGWNEGWEDWFGNSKDYVFDFVTPYPDFDVKEIHRYAARKGIKMMMHHETSASVRNYERHMDKAYQFMADNGYNSVKSGYVGNIIPRGEHHYGQWMNNHYLYAVKKAADYKIMVNAHEATRPTGICRTYPNLIGNESARGTEYESFGGNKVYHTTILPFTRLVGGPMDYTPGIFETHCNKMNPANNSQVRSTIARQLALYVTMYSPLQMAADIPENYERFMDAFQFIKDVALDWDETNYLEAEPGEYITIARKAKDTDDWYVGCTAGENGHTSKLVFDFLTPGKQYIATVYADAKDADWKENPQAYTIKKGILTNKSKLNLHAANGGGYAISIKEVKDKSEAKGLKRL
For orientation: Km means the substrate concentration at which the rate is half of its maximum. What is called kcat is the number of substrate molecules converted per active site and unit of time at saturation. As usually defined, the kcat/Km is the second-order rate constant that governs catalysis at low substrate concentration. Consider B1, for which, in data set [1], the Michaelis constant (Km) was 85 ± 9 µM, the kcat worked out at 53 ± 2 s⁻¹ and the kcat/Km worked out at 620000 M⁻¹ s⁻¹. In data set [2], the Km came to 2000 ± 400 µM, the kcat was found to be 0.015 ± 0.002 s⁻¹ and the kcat/Km amounted to 7.2 M⁻¹ s⁻¹.

B2: BtGH97b (Bacteroides thetaiotaomicron VPI-5482) (protein)
chain: QKQFTLASPDGNLKTTITIGDRLTYDITCNGRQILTPSPISMTLDNGTVWGENAKLSGTSRKSVDEMIPSPFYRASELRNHYNGLTLRFKKDWNVEFRAYNDGIAYRFVNQGKKPFRVVTEVSDYCFPSDMTASVPYVKSGKDGDYNSQFFNSFENTYTTDKLSKLNKQRLMFLPLVVDAGDGVKVCITESDLENYPGLYLSASEGANRLSSMHAPYPKRTVQGGHNQLQMLVKEHEDYIAKVDKPRNFPWRIAVVTTTDKDLAATNLSYLLGAPSRMSDLSWIKPGKVAWDWWNDWNLDGVDFVTGVNNPTYKAYIDFASANGIEYVILDEGWAVNLQADLMQVVKEIDLKELVDYAASKNVGIILWAGYHAFERDMENVCRHYAEMGVKGFKVDFMDRDDQEMTAFNYRAAEMCAKYKLILDLHGTHKPAGLNRTYPNVLNFEGVNGLEQMKWSSPSVDQVKYDVMIPFIRQVSGPMDYTQGAMRNASKGNYYPCYSEPMSQGTRCRQLALYVVFESPFNMLCDTPSNYMREPESTAFIAEIPTVWDESIVLDGKMGEYIVTARRKGDVWYVGGITDWSARDIEVDCSFLGDKSYHATLFKDGVNAHRAGRDYKCESFPIKKDGKLKVHLAPGGGFALKIK
Take B2: in data set [3], the Km came to 1500 ± 170 µM, the kcat was determined as 0.015 s⁻¹ and the kcat/Km is 11 M⁻¹ s⁻¹. Also, in data set [4], the Km came out at 230 ± 10 µM, the kcat is 91 ± 2 s⁻¹ and the kcat/Km stood at 391000 M⁻¹ s⁻¹.
